# In publication PMC11636682 (Science Advances, 2024):
# No end group written: not given here. *: point of attachment. Farnesyl = CC(C)=CCC/C(C)=C/CC/C(C)=C/C*
# Target: T1, phosphodiesterase-δ (PDEδ) (UniProt O43924 1-150)
# T1 construct: also called His6-MBP-tev-PDEδ; source: E. coli, purified
# Assay: ITC; 1 mM KRAS4a(167–186)HVR-FMe peptide in the syringe, 200 μM PDEδ in the cell; 25°C; 20 mM Hepes pH 7.3, 150 mM NaCl, 5 mM MgCl2, 1 mM TCEP; single binding site model
# Conditions: both partners purified
# T1 sequence (O43924 whole entry, stated change not applied): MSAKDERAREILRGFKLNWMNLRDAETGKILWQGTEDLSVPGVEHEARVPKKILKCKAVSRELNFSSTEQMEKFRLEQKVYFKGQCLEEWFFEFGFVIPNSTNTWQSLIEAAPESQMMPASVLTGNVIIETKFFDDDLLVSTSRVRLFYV
binder,measurement,value
"RLKKISKEEKTPGCVKIKKC(Farnesyl)-OMe (peptide, UniProt P01116-1 167-186, looked up, KRAS splice variant KRAS4a, hypervariable region, residues 167 to 186 (20-mer ending at the prenylated cysteine); also called prenylated 20-residue KRAS4a HVR peptide; KRAS4a-HVR peptide; source: synthetic peptide, bought: AnaSpec Peptides Inc) [KRAS4a(167–186)HVR-FMe peptide]",Kd,27 µM
